molecular target: human growth hormone (GH) (human, UniProt P01241); experiment: SPR, 20C
Sequence (P01241 27-217): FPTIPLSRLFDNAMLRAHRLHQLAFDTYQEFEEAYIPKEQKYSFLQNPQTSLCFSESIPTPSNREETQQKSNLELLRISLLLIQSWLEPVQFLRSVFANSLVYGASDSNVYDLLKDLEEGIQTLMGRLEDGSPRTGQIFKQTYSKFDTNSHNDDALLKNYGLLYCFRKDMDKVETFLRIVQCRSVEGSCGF

Binder	Kd [nM]
GH35 (antibody, V domains shown) VH: EVQLVESGGGLVQPGGSLRLSCAASGFNVYYSSIHWVRQAPGKGLEWVASIYSYSGYTSYADSVKGRFTISADTSKNTAYLQMNSLRAEDTAVYYCARWSYKAMDYWGQGTLVTV VL: DIQMTQSPSSLSASVGDRVTITCRASQSVSSAVAWYQQKPGKAPKLLIYSASSLYSGVPSRFSGSRSGTDFTLTISSLQPEDFATYYCQQDYYAPITFGQGTKVEIKR	14
GH14 (antibody, V domains shown) VH: EVQLVESGGGLVQPGGSLRLSCAASGFNFYSSSIHWVRQAPGKGLEWVASIYSYYGYTSYADSVKGRFTISADTSKNTAYLQMNSLRAEDTAVYYCARSGGYIGFDYWGQGTLVTV VL: DIQMTQSPSSLSASVGDRVTITCRASQSVSSAVAWYQQKPGKAPKLLIYSASSLYSGVPSRFSGSRSGTDFTLTISSLQPEDFATYYCQQYWEYPFTFGQGTKVEIKR	0.7
GH4 (antibody, V domains shown) VH: EVQLVESGGGLVQPGGSLRLSCAASGFNVSSSYIHWVRQAPGKGLEWVASIYSSYGYTSYADSVKGRFTISADTSKNTAYLQMNSLRAEDTAVYYCARESWGSGYYTWAMDYWGQGTLVTV VL: DIQMTQSPSSLSASVGDRVTITCRASQSVSSAVAWYQQKPGKAPKLLIYSASSLYSGVPSRFSGSRSGTDFTLTISSLQPEDFATYYCQQSWRYPFTFGQGTKVEIKR	5.4
GH21 (antibody, V domains shown) VH: EVQLVESGGGLVQPGGSLRLSCAASGFNVSSSYIHWVRQAPGKGLEWVASIYSYSGYTSYADSVKGRFTISADTSKNTAYLQMNSLRAEDTAVYYCARYMYYAMDYWGQGTLVTV VL: DIQMTQSPSSLSASVGDRVTITCRASQSVSSAVAWYQQKPGKAPKLLIYSASSLYSGVPSRFSGSRSGTDFTLTISSLQPEDFATYYCQQSSWSPITFGQGTKVEIKR	7.5
GH34 (antibody, V domains shown) VH: EVQLVESGGGLVQPGGSLRLSCAASGFNFSYSSIHWVRQAPGKGLEWVASIYPSYGYTSYADSVKGRFTISADTSKNTAYLQMNSLRAEDTAVYYCARYYYFGMDYWGQGTLVTV VL: DIQMTQSPSSLSASVGDRVTITCRASQSVSSAVAWYQQKPGKAPKLLIYSASSLYSGVPSRFSGSRSGTDFTLTISSLQPEDFATYYCQQSWSMPLTFGQGTKVEIKR	20
GH6 (antibody, V domains shown) VH: EVQLVESGGGLVQPGGSLRLSCAASGFNVSYSSIHWVRQAPGKGLEWVASIYSSYGYTSYADSVKGRFTISADTSKNTAYLQMNSLRAEDTAVYYCARGHGSMWAMDYWGQGTLVTV VL: DIQMTQSPSSLSASVGDRVTITCRASQSVSSAVAWYQQKPGKAPKLLIYSASSLYSGVPSRFSGSRSGTDFTLTISSLQPEDFATYYCQQSWSLPFTFGQGTKVEIKR	0.04
GH1 (antibody, V domains shown) VH: EVQLVESGGGLVQPGGSLRLSCAASGFNFYYSSIHWVRQAPGKGLEWVAYIYSYSGYTSYADSVKGRFTISADTSKNTAYLQMNSLRAEDTAVYYCARYSWWGGMDYWGQGTLVTV VL: DIQMTQSPSSLSASVGDRVTITCRASQSVSSAVAWYQQKPGKAPKLLIYSASSLYSGVPSRFSGSRSGTDFTLTISSLQPEDFATYYCQQSYSVPITFGQGTKVEIKR	1.5
GH38 (antibody, V domains shown) VH: EVQLVESGGGLVQPGGSLRLSCAASGFNVYSSSIHWVRQAPGKGLEWVASIYPSYGYTSYADSVKGRFTISADTSKNTAYLQMNSLRAEDTAVYYCARWHWGWGSYGWGMDYWGQGTLVTV VL: DIQMTQSPSSLSASVGDRVTITCRASQSVSSAVAWYQQKPGKAPKLLIYSASSLYSGVPSRFSGSRSGTDFTLTISSLQPEDFATYYCQQQWYVPITFGQGTKVEIKR	8.1
GH11 (antibody, V domains shown) VH: EVQLVESGGGLVQPGGSLRLSCAASGFNIYSSSIHWVRQAPGKGLEWVASISSSSGSTSYADSVKGRFTISADTSKNTAYLQMNSLRAEDTAVYYCARKYSGYYSNWYYPALDYWGQGTLVTV VL: DIQMTQSPSSLSASVGDRVTITCRASQSVSSAVAWYQQKPGKAPKLLIYSASSLYSGVPSRFSGSRSGTDFTLTISSLQPEDFATYYCQQSSSSLITFGQGTKVEIKR	0.3
GH33 (antibody, V domains shown) VH: EVQLVESGGGLVQPGGSLRLSCAASGFNFYSSYIHWVRQAPGKGLEWVASIYSYSGYTSYADSVKGRFTISADTSKNTAYLQMNSLRAEDTAVYYCARYWYYYNGMDYWGQGTLVTV VL: DIQMTQSPSSLSASVGDRVTITCRASQSVSSAVAWYQQKPGKAPKLLIYSASSLYSGVPSRFSGSRSGTDFTLTISSLQPEDFATYYCQQIRYVPITFGQGTKVEIKR	5.8
GH3 (antibody, V domains shown) VH: EVQLVESGGGLVQPGGSLRLSCAASGFNVSSSSIHWVRQAPGKGLEWVAYISSYYGYTSYADSVKGRFTISADTSKNTAYLQMNSLRAEDTAVYYCAREGWYWWAMDYWGQGTLVTV VL: DIQMTQSPSSLSASVGDRVTITCRASQSVSSAVAWYQQKPGKAPKLLIYSASSLYSGVPSRFSGSRSGTDFTLTISSLQPEDFATYYCQQAWYLPITFGQGTKVEIKR	21
GH7 (antibody, V domains shown) VH: EVQLVESGGGLVQPGGSLRLSCAASGFNVYSSSIHWVRQAPGKGLEWVASIYSYSGYTSYADSVKGRFTISADTSKNTAYLQMNSLRAEDTAVYYCARGRYSWFALDYWGQGTLVTV VL: DIQMTQSPSSLSASVGDRVTITCRASQSVSSAVAWYQQKPGKAPKLLIYSASSLYSGVPSRFSGSRSGTDFTLTISSLQPEDFATYYCQQYWSFPITFGQGTKVEIKR	6.1

Further binders by falling Kd, results first:

Kd [nM]	Binder
17	GH32 (antibody, V domains shown) VH: EVQLVESGGGLVQPGGSLRLSCAASGFNFYSSYIHWVRQAPGKGLEWVASIYSYSGYTSYADSVKGRFTISADTSKNTAYLQMNSLRAEDTAVYYCARYKYMGMDYWGQGTLVTV VL: DIQMTQSPSSLSASVGDRVTITCRASQSVSSAVAWYQQKPGKAPKLLIYSASSLYSGVPSRFSGSRSGTDFTLTISSLQPEDFATYYCQQSSWMPITFGQGTKVEIKR
4.9	GH5 (antibody, V domains shown) VH: EVQLVESGGGLVQPGGSLRLSCAASGFNVSSYYIHWVRQAPGKGLEWVASIYSYYGYTSYADSVKGRFTISADTSKNTAYLQMNSLRAEDTAVYYCARGDNYSWAMDYWGQGTLVTV VL: DIQMTQSPSSLSASVGDRVTITCRASQSVSSAVAWYQQKPGKAPKLLIYSASSLYSGVPSRFSGSRSGTDFTLTISSLQPEDFATYYCQQSWQYPFTFGQGTKVEIKR
3.9	GH15 (antibody, V domains shown) VH: EVQLVESGGGLVQPGGSLRLSCAASGFNVSSSYIHWVRQAPGKGLEWVASIYSYSGYTSYADSVKGRFTISADTSKNTAYLQMNSLRAEDTAVYYCARTSYGRGALDYWGQGTLVTV VL: DIQMTQSPSSLSASVGDRVTITCRASQSVSSAVAWYQQKPGKAPKLLIYSASSLYSGVPSRFSGSRSGTDFTLTISSLQPEDFATYYCQQWSWYPITFGQGTKVEIKR
3.4	GH16 (antibody, V domains shown) VH: EVQLVESGGGLVQPGGSLRLSCAASGFNLSSYYIHWVRQAPGKGLEWVASIYPSYGYTSYADSVKGRFTISADTSKNTAYLQMNSLRAEDTAVYYCARWGKWYGYPFSGLDYWGQGTLVTV VL: DIQMTQSPSSLSASVGDRVTITCRASQSVSSAVAWYQQKPGKAPKLLIYSASSLYSGVPSRFSGSRSGTDFTLTISSLQPEDFATYYCQQDWYFPITFGQGTKVEIKR
1.9	GH20 (antibody, V domains shown) VH: EVQLVESGGGLVQPGGSLRLSCAASGFNVSSSYIHWVRQAPGKGLEWVASIYSYSGYTSYADSVKGRFTISADTSKNTAYLQMNSLRAEDTAVYYCARYKWYAMDYWGQGTLVTV VL: DIQMTQSPSSLSASVGDRVTITCRASQSVSSAVAWYQQKPGKAPKLLIYSASSLYSGVPSRFSGSRSGTDFTLTISSLQPEDFATYYCQQSSWYPITFGQGTKVEIKR
1.3	GH24 (antibody, V domains shown) VH: EVQLVESGGGLVQPGGSLRLSCAASGFNVSSSSIHWVRQAPGKGLEWVASIYSSYGYTSYADSVKGRFTISADTSKNTAYLQMNSLRAEDTAVYYCARGDRYVWAMDYWGQGTLVTV VL: DIQMTQSPSSLSASVGDRVTITCRASQSVSSAVAWYQQKPGKAPKLLIYSASSLYSGVPSRFSGSRSGTDFTLTISSLQPEDFATYYCQQSSSYPFTFGQGTKVEIKR
1.1	GH22 (antibody, V domains shown) VH: EVQLVESGGGLVQPGGSLRLSCAASGFNFSSSYIHWVRQAPGKGLEWVASIYSYSGYTSYADSVKGRFTISADTSKNTAYLQMNSLRAEDTAVYYCARYRFIGAMDYWGQGTLVTV VL: DIQMTQSPSSLSASVGDRVTITCRASQSVSSAVAWYQQKPGKAPKLLIYSASSLYSGVPSRFSGSRSGTDFTLTISSLQPEDFATYYCQQSHWSPITFGQGTKVEIKR
0.9	GH2 (antibody, V domains shown) VH: EVQLVESGGGLVQPGGSLRLSCAASGFNVSSSYIHWVRQAPGKGLEWVASIYSYYGYTSYADSVKGRFTISADTSKNTAYLQMNSLRAEDTAVYYCARENYGNWRSMYSGMDYWGQGTLVTV VL: DIQMTQSPSSLSASVGDRVTITCRASQSVSSAVAWYQQKPGKAPKLLIYSASSLYSGVPSRFSGSRSGTDFTLTISSLQPEDFATYYCQQSYFLPFTFGQGTKVEIKR
0.3	GH13 (antibody, V domains shown) VH: EVQLVESGGGLVQPGGSLRLSCAASGFNFSSSSIHWVRQAPGKGLEWVASISSYYSSTYYADSVKGRFTISADTSKNTAYLQMNSLRAEDTAVYYCARQYTSPWHWYKAMDYWGQGTLVTV VL: DIQMTQSPSSLSASVGDRVTITCRASQSVSSAVAWYQQKPGKAPKLLIYSASSLYSGVPSRFSGSRSGTDFTLTISSLQPEDFATYYCQQSSSSLITFGQGTKVEIKR
0.08	GH12 (antibody, V domains shown) VH: EVQLVESGGGLVQPGGSLRLSCAASGFNLSSSYIHWVRQAPGKGLEWVASIYPYSGYTSYADSVKGRFTISADTSKNTAYLQMNSLRAEDTAVYYCARMYWTGALDYWGQGTLVTV VL: DIQMTQSPSSLSASVGDRVTITCRASQSVSSAVAWYQQKPGKAPKLLIYSASSLYSGVPSRFSGSRSGTDFTLTISSLQPEDFATYYCQQSSYSPITFGQGTKVEIKR
